B1: CE115HA000 V11L (antibody, human IgG1, kappa, L234A L235A, N297A, name in Kabat numbering)
heavy: QVQLVESGGGLVQPGRSLRLSCAASGFTFSNAWMHWVRQAPGKGLEWVAQIKAKSNNYATYYAESVKGRFTISRDDSKNSLYLQMNSLKTEDTAVYYCRYVHYGAYYGVDAWGQGTTVTVSSASTKGPSVFPLAPSSKSTSGGTAALGCLVKDYFPEPVTVSWNSGALTSGVHTFPAVLQSSGLYSLSSVVTVPSSSLGTQTYICNVNHKPSNTKVDKKVEPKSCDKTHTCPPCPAPEAAGGPSVFLFPPKPKDTLMISRTPEVTCVVVDVSHEDPEVKFNWYVDGVEVHNAKTKPREEQYASTYRVVSVLTVLHQDWLNGKEYKCKVSNKALPAPIEKTISKAKGQPREPQVYTLPPSRCELTKNQVSLSCAVKGFYPSDIAVEWESNGQPENNYKTTPPVLDSDGSFFLVSKLTVDKSRWQQGNVFSCSVMHEALHNHYTQKSLSLSPDYKDDDDK
chain: EPKSSDKTHTCPPCPAPELLGGPSVFLFPPKPKDTLMISRTPEVTCVVVDVSHEDPEVKFNWYVDGVEVHNAKTKPREEQYNSTYRVVSVLTVLHQDWLNGKEYKCKVSNKALPAPIEKTISKAKGQPREPQVCTLPPSRDELTKNQVSLWCLVKGFYPSDIAVEWESNGQPENNYKTTPPVLDSDGSFFLYSKLTVDKSRWQQGNVFSCSVMHEALHNRYTQKSLSLSP
light: DIVMTQSPLSLPVTPGEPASISCRSSQSLVHSNRNTYLHWYQQKPGQAPRLLIYKVSNRFSGVPDRFSGSGSGTDFTLKISRVEAEDVGVYYCGQGTQVPYTFGQGTKLEIKRTVAAPSVFIFPPSDEQLKSGTASVVCLLNNFYPREAKVQWKVDNALQSGNSQESVTEQDSKDSTYSLSSTLTLSKADYEKHKVYACEVTHQGLSSPVTKSFNRGEC
notes: one-arm antibody
B2: CE115HA000 V95A (antibody, human IgG1, kappa, L234A L235A, N297A, name in Kabat numbering)
heavy: QVQLVESGGGVVQPGRSLRLSCAASGFTFSNAWMHWVRQAPGKGLEWVAQIKAKSNNYATYYAESVKGRFTISRDDSKNSLYLQMNSLKTEDTAVYYCRYAHYGAYYGVDAWGQGTTVTVSSASTKGPSVFPLAPSSKSTSGGTAALGCLVKDYFPEPVTVSWNSGALTSGVHTFPAVLQSSGLYSLSSVVTVPSSSLGTQTYICNVNHKPSNTKVDKKVEPKSCDKTHTCPPCPAPEAAGGPSVFLFPPKPKDTLMISRTPEVTCVVVDVSHEDPEVKFNWYVDGVEVHNAKTKPREEQYASTYRVVSVLTVLHQDWLNGKEYKCKVSNKALPAPIEKTISKAKGQPREPQVYTLPPSRCELTKNQVSLSCAVKGFYPSDIAVEWESNGQPENNYKTTPPVLDSDGSFFLVSKLTVDKSRWQQGNVFSCSVMHEALHNHYTQKSLSLSPDYKDDDDK
chain: EPKSSDKTHTCPPCPAPELLGGPSVFLFPPKPKDTLMISRTPEVTCVVVDVSHEDPEVKFNWYVDGVEVHNAKTKPREEQYNSTYRVVSVLTVLHQDWLNGKEYKCKVSNKALPAPIEKTISKAKGQPREPQVCTLPPSRDELTKNQVSLWCLVKGFYPSDIAVEWESNGQPENNYKTTPPVLDSDGSFFLYSKLTVDKSRWQQGNVFSCSVMHEALHNRYTQKSLSLSP
light: DIVMTQSPLSLPVTPGEPASISCRSSQSLVHSNRNTYLHWYQQKPGQAPRLLIYKVSNRFSGVPDRFSGSGSGTDFTLKISRVEAEDVGVYYCGQGTQVPYTFGQGTKLEIKRTVAAPSVFIFPPSDEQLKSGTASVVCLLNNFYPREAKVQWKVDNALQSGNSQESVTEQDSKDSTYSLSSTLTLSKADYEKHKVYACEVTHQGLSSPVTKSFNRGEC
notes: one-arm antibody
B3: CE115HA000 V95D (antibody, human IgG1, kappa, L234A L235A, N297A, name in Kabat numbering)
heavy: QVQLVESGGGVVQPGRSLRLSCAASGFTFSNAWMHWVRQAPGKGLEWVAQIKAKSNNYATYYAESVKGRFTISRDDSKNSLYLQMNSLKTEDTAVYYCRYDHYGAYYGVDAWGQGTTVTVSSASTKGPSVFPLAPSSKSTSGGTAALGCLVKDYFPEPVTVSWNSGALTSGVHTFPAVLQSSGLYSLSSVVTVPSSSLGTQTYICNVNHKPSNTKVDKKVEPKSCDKTHTCPPCPAPEAAGGPSVFLFPPKPKDTLMISRTPEVTCVVVDVSHEDPEVKFNWYVDGVEVHNAKTKPREEQYASTYRVVSVLTVLHQDWLNGKEYKCKVSNKALPAPIEKTISKAKGQPREPQVYTLPPSRCELTKNQVSLSCAVKGFYPSDIAVEWESNGQPENNYKTTPPVLDSDGSFFLVSKLTVDKSRWQQGNVFSCSVMHEALHNHYTQKSLSLSPDYKDDDDK
chain: EPKSSDKTHTCPPCPAPELLGGPSVFLFPPKPKDTLMISRTPEVTCVVVDVSHEDPEVKFNWYVDGVEVHNAKTKPREEQYNSTYRVVSVLTVLHQDWLNGKEYKCKVSNKALPAPIEKTISKAKGQPREPQVCTLPPSRDELTKNQVSLWCLVKGFYPSDIAVEWESNGQPENNYKTTPPVLDSDGSFFLYSKLTVDKSRWQQGNVFSCSVMHEALHNRYTQKSLSLSP
light: DIVMTQSPLSLPVTPGEPASISCRSSQSLVHSNRNTYLHWYQQKPGQAPRLLIYKVSNRFSGVPDRFSGSGSGTDFTLKISRVEAEDVGVYYCGQGTQVPYTFGQGTKLEIKRTVAAPSVFIFPPSDEQLKSGTASVVCLLNNFYPREAKVQWKVDNALQSGNSQESVTEQDSKDSTYSLSSTLTLSKADYEKHKVYACEVTHQGLSSPVTKSFNRGEC
notes: one-arm antibody
B4: CE115HA000 V95E (antibody, human IgG1, kappa, L234A L235A, N297A, name in Kabat numbering)
heavy: QVQLVESGGGVVQPGRSLRLSCAASGFTFSNAWMHWVRQAPGKGLEWVAQIKAKSNNYATYYAESVKGRFTISRDDSKNSLYLQMNSLKTEDTAVYYCRYEHYGAYYGVDAWGQGTTVTVSSASTKGPSVFPLAPSSKSTSGGTAALGCLVKDYFPEPVTVSWNSGALTSGVHTFPAVLQSSGLYSLSSVVTVPSSSLGTQTYICNVNHKPSNTKVDKKVEPKSCDKTHTCPPCPAPEAAGGPSVFLFPPKPKDTLMISRTPEVTCVVVDVSHEDPEVKFNWYVDGVEVHNAKTKPREEQYASTYRVVSVLTVLHQDWLNGKEYKCKVSNKALPAPIEKTISKAKGQPREPQVYTLPPSRCELTKNQVSLSCAVKGFYPSDIAVEWESNGQPENNYKTTPPVLDSDGSFFLVSKLTVDKSRWQQGNVFSCSVMHEALHNHYTQKSLSLSPDYKDDDDK
chain: EPKSSDKTHTCPPCPAPELLGGPSVFLFPPKPKDTLMISRTPEVTCVVVDVSHEDPEVKFNWYVDGVEVHNAKTKPREEQYNSTYRVVSVLTVLHQDWLNGKEYKCKVSNKALPAPIEKTISKAKGQPREPQVCTLPPSRDELTKNQVSLWCLVKGFYPSDIAVEWESNGQPENNYKTTPPVLDSDGSFFLYSKLTVDKSRWQQGNVFSCSVMHEALHNRYTQKSLSLSP
light: DIVMTQSPLSLPVTPGEPASISCRSSQSLVHSNRNTYLHWYQQKPGQAPRLLIYKVSNRFSGVPDRFSGSGSGTDFTLKISRVEAEDVGVYYCGQGTQVPYTFGQGTKLEIKRTVAAPSVFIFPPSDEQLKSGTASVVCLLNNFYPREAKVQWKVDNALQSGNSQESVTEQDSKDSTYSLSSTLTLSKADYEKHKVYACEVTHQGLSSPVTKSFNRGEC
notes: one-arm antibody
B5: CE115HA000 V95G (antibody, human IgG1, kappa, L234A L235A, N297A, name in Kabat numbering)
heavy: QVQLVESGGGVVQPGRSLRLSCAASGFTFSNAWMHWVRQAPGKGLEWVAQIKAKSNNYATYYAESVKGRFTISRDDSKNSLYLQMNSLKTEDTAVYYCRYGHYGAYYGVDAWGQGTTVTVSSASTKGPSVFPLAPSSKSTSGGTAALGCLVKDYFPEPVTVSWNSGALTSGVHTFPAVLQSSGLYSLSSVVTVPSSSLGTQTYICNVNHKPSNTKVDKKVEPKSCDKTHTCPPCPAPEAAGGPSVFLFPPKPKDTLMISRTPEVTCVVVDVSHEDPEVKFNWYVDGVEVHNAKTKPREEQYASTYRVVSVLTVLHQDWLNGKEYKCKVSNKALPAPIEKTISKAKGQPREPQVYTLPPSRCELTKNQVSLSCAVKGFYPSDIAVEWESNGQPENNYKTTPPVLDSDGSFFLVSKLTVDKSRWQQGNVFSCSVMHEALHNHYTQKSLSLSPDYKDDDDK
chain: EPKSSDKTHTCPPCPAPELLGGPSVFLFPPKPKDTLMISRTPEVTCVVVDVSHEDPEVKFNWYVDGVEVHNAKTKPREEQYNSTYRVVSVLTVLHQDWLNGKEYKCKVSNKALPAPIEKTISKAKGQPREPQVCTLPPSRDELTKNQVSLWCLVKGFYPSDIAVEWESNGQPENNYKTTPPVLDSDGSFFLYSKLTVDKSRWQQGNVFSCSVMHEALHNRYTQKSLSLSP
light: DIVMTQSPLSLPVTPGEPASISCRSSQSLVHSNRNTYLHWYQQKPGQAPRLLIYKVSNRFSGVPDRFSGSGSGTDFTLKISRVEAEDVGVYYCGQGTQVPYTFGQGTKLEIKRTVAAPSVFIFPPSDEQLKSGTASVVCLLNNFYPREAKVQWKVDNALQSGNSQESVTEQDSKDSTYSLSSTLTLSKADYEKHKVYACEVTHQGLSSPVTKSFNRGEC
notes: one-arm antibody
B6: CE115HA000 V95K (antibody, human IgG1, kappa, L234A L235A, N297A, name in Kabat numbering)
heavy: QVQLVESGGGVVQPGRSLRLSCAASGFTFSNAWMHWVRQAPGKGLEWVAQIKAKSNNYATYYAESVKGRFTISRDDSKNSLYLQMNSLKTEDTAVYYCRYKHYGAYYGVDAWGQGTTVTVSSASTKGPSVFPLAPSSKSTSGGTAALGCLVKDYFPEPVTVSWNSGALTSGVHTFPAVLQSSGLYSLSSVVTVPSSSLGTQTYICNVNHKPSNTKVDKKVEPKSCDKTHTCPPCPAPEAAGGPSVFLFPPKPKDTLMISRTPEVTCVVVDVSHEDPEVKFNWYVDGVEVHNAKTKPREEQYASTYRVVSVLTVLHQDWLNGKEYKCKVSNKALPAPIEKTISKAKGQPREPQVYTLPPSRCELTKNQVSLSCAVKGFYPSDIAVEWESNGQPENNYKTTPPVLDSDGSFFLVSKLTVDKSRWQQGNVFSCSVMHEALHNHYTQKSLSLSPDYKDDDDK
chain: EPKSSDKTHTCPPCPAPELLGGPSVFLFPPKPKDTLMISRTPEVTCVVVDVSHEDPEVKFNWYVDGVEVHNAKTKPREEQYNSTYRVVSVLTVLHQDWLNGKEYKCKVSNKALPAPIEKTISKAKGQPREPQVCTLPPSRDELTKNQVSLWCLVKGFYPSDIAVEWESNGQPENNYKTTPPVLDSDGSFFLYSKLTVDKSRWQQGNVFSCSVMHEALHNRYTQKSLSLSP
light: DIVMTQSPLSLPVTPGEPASISCRSSQSLVHSNRNTYLHWYQQKPGQAPRLLIYKVSNRFSGVPDRFSGSGSGTDFTLKISRVEAEDVGVYYCGQGTQVPYTFGQGTKLEIKRTVAAPSVFIFPPSDEQLKSGTASVVCLLNNFYPREAKVQWKVDNALQSGNSQESVTEQDSKDSTYSLSSTLTLSKADYEKHKVYACEVTHQGLSSPVTKSFNRGEC
notes: one-arm antibody

biological target: T1, CD3 epsilon homodimer protein (UniProt P07766 23-126); test: SPR, CD3 epsilon homodimer on chip, one-arm antibody as analyte;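 note: surface plasmon resonance at 25 °C with CD3 epsilon homodimer amine-coupled to a CM4 sensor chip, antibody injected as analyte, HBS-EP+ as running buffer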
T1 construct: also called CD3 (CD3 epsilon)
T1 sequence (P07766 23-126): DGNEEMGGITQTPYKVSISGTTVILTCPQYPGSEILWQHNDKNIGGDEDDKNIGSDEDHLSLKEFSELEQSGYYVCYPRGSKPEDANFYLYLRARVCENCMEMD
Method: An appropriate amount of CD3 epsilon homodimer protein was immobilized onto Sensor chip CM4 (GE Healthcare Japan Corp.) by the amine coupling method. Then, the antibody having an appropriate concentration was injected thereto as an analyte and allowed to interact with the CD3 epsilon homodimer protein on the sensor chip. Then, the sensor chip was regenerated by the injection of 10 mmol/L glycine-HCl (pH 1.5). The assay was conducted at 25 degrees C., and HBS-EP+(GE Healthcare Japan Corp.) was used as a running buffer. […] Each parameter was calculated using Biacore T200 Evaluation Software (GE Healthcare Japan Corp.).

**Q.** For B1, which “KD ratio (KD of CE115HA000/KD of altered form)” value (shortened to “KD ratio”) is on record?
**A.** Its value is 0.83.

**Q.** For B2, which “KD ratio” value is on record?
**A.** Its value is 3.15.

**Q.** For B3, which “KD ratio” value is on record?
**A.** Its value is 108.

**Q.** With B4 as the binder, how does the “KD ratio” value read?
**A.** The value was 50.5.

**Q.** With B5 as the binder, how does the “KD ratio” value read?
**A.** The value was 78300.

**Q.** For B6, which “KD ratio” value is on record?
**A.** Its value is 1.15.
